For one substance, affinity (from inhibition of binding) and fold lower affinity than in the C*07:01 assay results are on record in article PMC8439434.

In test [1] the target is HLA-C*07:01 purified from the Steinlin EBV transformed homozygous cell line (human (endogenous in the Steinlin EBV transformed cell line)). In words: radioligand binding; classical MHC-peptide inhibition of binding assay specific for HLA-C*07:01: purified MHC from the Steinlin line, radiolabeled 3424.0028 as probe, test peptides as inhibitors, anti-HLA Class I B123.2 mAb.
For test [2], the target named is HLA-B*08:01 (human (endogenous in the Steinlin EBV transformed cell line)). In words: radioligand binding; previously validated B*08:01 inhibition of binding assay (ref. 10); radiolabeled probe not named.

On to “peptide 3424.0028 (…, DNA replication licensing factor MCM5 289-297)”, for which the affinity (from inhibition of binding) in test [1] came out at 0.21 nM. The substance further yielded a fold lower affinity than in the C*07:01 assay in test [2] of 1500 fold.
